Reference: the domain aggregation screens of Martell et al. (2025)

Assay: soluble fraction after stress (log2 fold change); higher = more stays soluble; pooled small domains, quantitative proteomics
Conditions: stress: 75 degC
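Note: 20 min heating vs room temperature control held 20 min.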

| Sequence | soluble fraction (log2) |
| --- | --- |
| HMDFGHWAAHKLEQMSEYRLRHGEAVAIGIALDVLYSVRQGLLARPAAERILSLLERLGFTLFDPELKS | 0.224 |
| HMDFLKSVDLSKYSKVESLILSHLSKGDFDIDDFIRSFSLGTDEVTRAIVSLEIEGIILRKGNRIFRKKS | -1.38 |
| HMDFMNSEIKKIVEDLKLTLQSLNYTKNEIKSILPVINKETDNLIKKEKYASFENLLRLAMNHLDNN | -0.751 |
| HMDFTPDQIARLDDIISRYKDKPGGLIPVLEEAQVALEYLPIGVQKRIAKGLNLPLSRVYGVVTFYSFFTM | -0.0122 |
| HMDFVKGDTVVFIDAFMPDHLMTIHKVQGEGILLDGNHKFALAHLIRHASTVELNAKRRLSLTEQS | -2.42 |
| HMDGASLLDIDGDGKVTPTIDGLLLMRWQFGTRGAALIGGISFPAGALRTTVNAIELHMRRLSETT | -0.699 |
| HMDGDVAVKGGDGVLEVRLANAANVRVYNLAGRLMADYTGTELHMPLPKGVYMVVAGDNRTKVVV | -0.476 |
| HMDGEINPYTGREYVTNSVRMHPRRIGYVQVYSRKDHKWTDMTEWAFLGEQERKKVLLGKAYEPPVYL | -1.91 |
| HMDGEMRRKRILQLLSEQTKPLSGTALAKQFGVSRQVIVQDIALLKSKEPAIISTYRGYVLGR | -1.25 |
| HMDGFAEFWSAYPKKVGKGAAEASWRKHRPPLQTVLDAVKRQAESDQWRKDGGQFIPNPATWLNQKRWEDD | -0.0375 |
| HMDGIIIPDVSGKSYAEAVATLNEKGFKVEKGEDAGSSLAKDLVSYTNPAAGNRAKSGATISVFVSTGANA | 0.407 |
| HMDGKTALQEIVASSGWSPPEYKVSESGPDHDKDFVAYAIVNGVAYPEGHGKSKREAEQVAARIAFEALSK | -0.0295 |
| HMDGMRASDMVRAALAGAGKTQKELAEHMGWTPQNLSGRLKNNSLTFDELSKALHFAGYEVSMSDANGAG | 0.0394 |
| HMDGNVPSVEGKPLSGAKYILETYGYKTGTVTEVNSEDVPAGIVISQNPARGTTLANGGSVNLQVSLG | 0.645 |
| HMDGPGAGGRFLAEDLGTGKMTLEALQRHYVTLVYSRTGKYEETARRLEIDRRTVKKYLDEELLAELRET | 0.0914 |
| HMDGQGIRSITPEYYLSDSATKMPDASSSGWKSVPDDYIDKHYYWVRSKILWDDGTYTTTTPVL | -0.17 |
| HMDGRVQATAEKLRAALDRLARSSVGSPMIERQLTVAALAREARVGRNAIYANHRDILDELIRVRQQRRA | 0.155 |
| HMDGTAKVAHMLVNELETFNRLKKHEIAYMLHIQPETLSRILNKLTRNGTIEIEKNSVVILNIQELKEIY | -1.95 |
| HMDGVNRDKIEYRLDDLYYLKGSDAPYTGKVFEEWSGQQRVETNYIDGKLDGLSESWHENGQKASEVNY | 0.486 |
| HMDHFLRRFQVEGLNLEKLLRLAAEREMDLLQVRRSGRRMTGLVAEKRLPELEELAAQGGWALRLGEY | -0.843 |
| HMDHSSLIKKLRLERGLSQKKLAQGISQRSTLASFENNATKISYNILIQYLDRMNVTLEEYQFMLDGNNL | -2.27 |
| HMDHWQSVNSALELLEVSRRTLYDYISRKKLQTKKEGKYRYVWIDDDVIEEIKTSKSAYIEINN | -2.21 |
| HMDIAATTVKQKIRTLLADEDAARPLSDQKIADALAEDGIDVARRTVAKYREELGIEPSWARKR | 0.106 |
| HMDIDLGAVEEQAVKGSGPGGQKMNKTSSGVLLRYRLGEELVLVKWTRERQHSLNRFLALRELVDEIEAR | 0.976 |
| HMDIFFEKIFNILIGYNQNQENLISEKSILNFHLSHKSNSNFEYIPDEKTPKYIWKYLSNYNLLE | -0.439 |
| HMDIFLPDVKGYDLIPSFRRHLPDIDVIAMTGYNTRALESAVRQQDVLFYMIKPFEASQLKEILEHLVK | -0.16 |

| Sequence | soluble fraction (log2) |
| --- | --- |
| HMDIKEIIKNRRIELGLTLKEVATAVGVSEGTVSRWESGNITNMKRNKIAALAKTLQIPPTTI | -0.618 |
| HMDIKKHISATLKREMEKRGLNFMEFSTELGIPRTTLQGYLKGTSSPQADSLEELADKLGISPAELVSG | -0.0134 |
| HMDIMLLLYKNIKKRRLEIGMSQEELAQKTGYTSRSSIAKIEKGEVDLQLSKIKLFANALRVSQSELMG | -3.49 |
| HMDIMTVGERVKKLAEKQGISLRELAKKAELSYNTVYSITRRGSERVAPDTISRLANALGVNVNELT | -0.263 |
| HMDINEIILKVASEKKTFKTSDVLEALDNNYTKQHVSALISAMVKKGILVKAGSTAKSTYALPENASLL | -1.26 |
| HMDINIETLNYYVGKAKIPLSELRISVKNIDLFLSGEKQPTFNQLSSIAKKLNIPTGLLLLDESIEV | -3 |
| HMDIPGITAVKPQAAFYMFPKIDVKKFNIVNDEKFALDLLQDKKILIVQGSGFNWKQPDHFRVV | 0.177 |
| HMDIRVAHVDDDMSFGEAFAQARSQVGPGGVFEWHGKLYGTYTAEEWASMSPAERSQYQQAVFN | -0.133 |
| HMDIVLPFSFAKRHGVVLSERQGETELLYLKGLPVRVLAEARRVLRQEFTVRQVEQAVFDKALSESYQN | -0.957 |
| HMDIYLDDINRKILHLLSQGVKTKSLRDYIDLSMSAIEKRKKHLKDLFLIEDGKDETLLSEARKKGF | -1.19 |
| HMDKAGWLPARVRLADYPALKQLAWQVQGVDELTPREALGIYERNWRHLDEAALLPRERNLIDALRLAFG | -0.72 |
| HMDKEQVTFIFRDIDIALRSLDYPIKDIKNTLNIIKSEFSNSKSTELNEQKINFENILKEAISILENND | -0.855 |
| HMDKFKDVGARIREARKVQKLSQADLAERLQISTSHMSDIENGKKNIGLDIFMRLTEALQVSADWLL | -0.437 |
| HMDKFTYVVKKEDEQYQIKDILRHNFTFSSRLRKKLKQNNSIFLNGAETVGWATPKEGDIISVRLP | -0.883 |
| HMDKKEFGKRLKNLRIRNKMSQQAMADSLGYTSRSTINKIEEGINEMSYDKIVRLMELYGLSRPDLGLEPI | -0.439 |
| HMDKKTMFNEALAKLVSYATAHDNLITMEDVKSFFNGLIDDDSQYKLIYDYLSINKIEIKGFT | -0.465 |
| HMDKLEKRILDYLLQKSAIDGSTILKISHREMAMDLGTAREVVTRILKKLETGGFVRQGENYLEILK | -0.518 |
| HMDKPIFTLRENEVLYWASMGKTYAEIATIVGISVRTVKFHMGNVVSKLGVSNARQAIRLGVELDLITPMQ | -2.03 |
| HMDKSFYETFEKIGHGDFDKGLNHVWQHANDGNGTATLLLSKLFLEFGDLDNFEKYLNISAEQSNPVAMKI | -0.357 |
| HMDKSNEVLMNHYRKQEINQAKKRLEEEKMSIIQVLQLTNKEVITTDELLEALYISKEQLLDEIINTTQ | -0.354 |
| HMDKSPVLQLNRDVPAGQQISADDFRTVEIGADGAFRSVPSSDLNAMVGSYAKVRLIAGTLLAREALQSG | 0.0261 |
| HMDKSRPVLRVGDSGDWVSKLQTALLEFGYRVAVDGVFGEHTKSAVVHFQNGRRLIADGVVGNLTWDALL | -2.4 |
| HMDKWFPVSSDHKVQVGDYLRTADGLVKVEATHNEYGTFYGKIITAIHDDVVKGETYEYRIDDVQVLA | -0.00685 |
| HMDLAPLQTVDIAINYAKAAELAAILKSSEGGILSDRGGVTVDERTNTLLIRDTLESIDEARKTI | 0.224 |
| HMDLATQHAAKVNAAILAARRFEREGSWRQVAAKYSEALQLMPGNEQASRGYQQAMAMLDERD | -0.0717 |
| HMDLDSGVAVLRTLMSQHNLQTDDFQNEIGGKSMVSMILNGTRKLSKNHIQALSGRFNLSPALFF | -0.819 |

| Sequence | soluble fraction (log2) |
| --- | --- |
| HMDLEELSNKMNNVFESLSSDLRDIIIMSDIEGLSYEEISHKINIPIGTVRSRLHRARDLMVRVIKEN | -0.517 |
| HMDLGEQIIEKLRAAGGFLAITDKSPAEEIYELFATSKKNYKKAVGGLYKKGLLVIEDDGIRLTPAGR | -0.503 |
| HMDLHERISSVLLGTGKSNDELAQILGVNKNTISAYKNKHGDLKGIVLEGIVKHFDINPVWLLTGSGTR | -0.577 |
| HMDLKSLEFAIVENVQRHDLNPLEEAQGYKRLIDEFSYDQDKVSKFIGKSRSYITNSLRLLNLPLEVLEF | 0.125 |
| HMDLKTNSQLINELEKKIKRPFDREIKNYLNKNLSTDRMISNNEIDKIILFYSGNNEIPNIEKISLILNDN | -0.0499 |
| HMDLPATVPNLEGLTEVTARNKLTVAGLSLGEVKEVESDKEKGTVVGQSIAYGKRVTKGTKVDIEISSGK | 0.194 |
| HMDLPDTLSMPNALKVLEDNGFPTSKAKLYKMTSQEQIPFMKYGNKLVFSRKALIEWAHKQLV | -1.94 |
| HMDLPREKRIEIGLTYIYGIGLKTSQKILAATGIDPNTRVKDLDETTVSKLREYIDHNYRVEGELRS | -1.32 |
| HMDLSLQTFNELKTELTNNKITIDQFSEKINEFDITSDIFEISRELFLDDTLSLEDYLVVIENVLIN | -0.327 |
| HMDLSQTVQAKALARVNVREGAGTHFKSLGKLKKGELLPVFRVGNSWASIWWKGRVAYVHTDYLRFESA | -1.98 |
| HMDLTKLFDHDSEYGKSYVFGKITDEMIARAEQTLGYRMPASYIELLKVQNGGMISDELDESWLTTIYGIG | -0.359 |
| HMDMAYEVVKAFHDLQDYKDVKGGKVYHHYDVGDTYPRQGLDPAPDETRIEELLSSGNAQGVPLIAEV | 0.112 |
| HMDMNVQNYRGLSLDRAKKLISDLGLKYEVVGTGDSVVKQVPSSGSRMSKENGRIILYTENVEDA | -0.0826 |
| HMDMPLIGTAIRGWGIISPAQQETLIKMSILTVEDLAAINDEGIKRIGMGGLDLKNKAKAWLLQLK | -2.2 |
| HMDMRLADLIGRDGITITFMRPSGKVEIDGEIYDAVSDVGLIDKNEEVEVIKFENAQLVVTKKNKN | 0.102 |
| HMDMSVDQFNQGIRGSELYQQFIHGRGLQQPDGKTREWTDADRNAWRRTLEASGVRIPDGMKIDNAGNLNE | 0.375 |
| HMDNEIIEEEKITTLMITHNMRDAIKYGNRLIMLNEGRVIFDISGEEKKNLTVQELLEKFEK | 0.242 |
| HMDNEIMYPIQINGKVRAELFVSTERAMDKQYVLEQAKANEKIQGYLEGNRLVKEIFVPKRIVNLVIAP | -0.576 |
| HMDNIEIGNRIREIRIKKNISVFELAYRTKTSQSHIYQIEGGSQNMSIELLFKIADTLETDPNTILGV | -3.97 |
| HMDNIPAHIKAKIINYVNRNYPGAIIKDIERKSNGRYEAEIVYNNREYDLLFDAQGNFISASLDDK | -0.0583 |
| HMDNNFIQSLYPIAIGISKNQLDPWDLINGWVEYYLKNKEKYINHPNLKAVAVLKMKGLLIDHFRKS | -3.55 |
| HMDNPKGNLQEAVQAKGNEPIEYRVLNVDGPDHAREFKIAVFIGGKRKGTGVGNSKKKAEEIAAEKAFKRM | 0.109 |
| HMDNPVPVIITDQNFQPQLWKNVGVPTDTLFHELSAANQRKLENLMKTMIQTPLTDNGKISGYAFYSK | -0.00686 |
| HMDNREKLRQEFLENLKELQEQNDIPQQEIDRVILDYDGVAEFLEDEGALKRYGGQLVDMTAYRAGAIPS | 0.0771 |
